Data published in patent US8173771B2, “Humanin receptor or humanin-like polypeptide receptor” (Keio Univeristy, priority 2005, dated 2012).

Assays:
PCN cells = biological target: T1, PCN cells (Mus musculus, UniProt O70394+O88507); test: Immunofluorescence-based binding assay (2) on PCN, competition with unlabeled cytokines; details: similar range as IL-27; 10 nM biotin-HNG
T1 construct: endogenous in cells; host or cells: mouse primary cortical neurons (PCN), E14 ICR mice
T1 sequence (O70394 25-623): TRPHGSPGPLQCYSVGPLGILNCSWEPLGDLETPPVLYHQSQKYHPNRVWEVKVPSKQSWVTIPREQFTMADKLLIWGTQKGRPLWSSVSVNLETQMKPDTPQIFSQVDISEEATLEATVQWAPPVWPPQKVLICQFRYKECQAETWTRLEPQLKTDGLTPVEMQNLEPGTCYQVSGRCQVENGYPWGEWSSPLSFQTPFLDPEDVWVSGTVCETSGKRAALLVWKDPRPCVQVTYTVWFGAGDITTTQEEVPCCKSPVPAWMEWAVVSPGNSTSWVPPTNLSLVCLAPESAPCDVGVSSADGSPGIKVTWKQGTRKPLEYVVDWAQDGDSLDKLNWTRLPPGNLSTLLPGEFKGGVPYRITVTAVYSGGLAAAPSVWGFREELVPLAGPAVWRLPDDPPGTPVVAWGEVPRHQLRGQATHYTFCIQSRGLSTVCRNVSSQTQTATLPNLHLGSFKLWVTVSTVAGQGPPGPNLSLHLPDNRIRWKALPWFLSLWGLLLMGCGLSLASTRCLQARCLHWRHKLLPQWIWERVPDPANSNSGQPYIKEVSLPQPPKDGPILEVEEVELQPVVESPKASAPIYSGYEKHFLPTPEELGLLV
T1 sequence (O88507 23-342 limits assumed): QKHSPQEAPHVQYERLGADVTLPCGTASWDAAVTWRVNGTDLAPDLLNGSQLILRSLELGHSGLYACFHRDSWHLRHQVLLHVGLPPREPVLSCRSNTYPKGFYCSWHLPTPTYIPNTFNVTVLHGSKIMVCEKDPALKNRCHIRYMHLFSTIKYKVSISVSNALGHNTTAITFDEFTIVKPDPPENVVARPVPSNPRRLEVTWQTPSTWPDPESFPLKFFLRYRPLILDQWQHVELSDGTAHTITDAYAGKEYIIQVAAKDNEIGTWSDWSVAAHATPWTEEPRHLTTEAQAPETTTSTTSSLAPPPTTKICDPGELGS
T1 sequence (Q00560 23-917 partner): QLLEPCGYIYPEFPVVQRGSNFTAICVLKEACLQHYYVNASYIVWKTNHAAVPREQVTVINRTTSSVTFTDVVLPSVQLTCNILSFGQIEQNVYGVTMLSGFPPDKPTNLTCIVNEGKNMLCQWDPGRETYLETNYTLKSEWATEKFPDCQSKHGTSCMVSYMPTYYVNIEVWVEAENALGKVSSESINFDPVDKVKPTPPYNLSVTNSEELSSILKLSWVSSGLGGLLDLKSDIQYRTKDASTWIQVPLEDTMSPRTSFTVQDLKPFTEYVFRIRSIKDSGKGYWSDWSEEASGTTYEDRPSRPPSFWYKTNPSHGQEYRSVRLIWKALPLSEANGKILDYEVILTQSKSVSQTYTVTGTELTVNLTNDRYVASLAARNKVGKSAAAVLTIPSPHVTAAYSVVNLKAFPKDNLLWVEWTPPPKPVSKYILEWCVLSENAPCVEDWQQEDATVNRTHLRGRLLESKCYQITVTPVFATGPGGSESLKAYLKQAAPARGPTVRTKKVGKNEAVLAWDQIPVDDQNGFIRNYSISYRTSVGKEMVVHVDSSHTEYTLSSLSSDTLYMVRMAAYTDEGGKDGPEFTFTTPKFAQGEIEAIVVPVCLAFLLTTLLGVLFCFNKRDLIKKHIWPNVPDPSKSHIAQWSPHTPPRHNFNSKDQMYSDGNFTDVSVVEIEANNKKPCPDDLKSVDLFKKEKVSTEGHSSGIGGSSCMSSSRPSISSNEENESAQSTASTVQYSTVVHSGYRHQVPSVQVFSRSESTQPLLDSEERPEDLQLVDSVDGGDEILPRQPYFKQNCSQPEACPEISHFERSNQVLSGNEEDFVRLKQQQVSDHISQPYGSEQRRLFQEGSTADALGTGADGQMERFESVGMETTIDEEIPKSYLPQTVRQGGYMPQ
Protocol: After 6 hrs incubation, they were fixed with 4% paraformaldehyde in PBS for 30 min. After washing with PBS, cells were stained with FITC-conjugated avidin (Molecularprobe, Eugene, Oreg., USA). Immunofluorescence intensity was measured (excitation=485 nm, emission=535 nm) with a spectrofluorometer (Wallac1420 ARVOsx Multi Label Counter). Immunohistochemical analysis was done with a laser-scanning, confocal microscope LSM (Carl Zeiss, Germany).

[1] = tested on: primary cortical neurons (PCNs); test: Aβ neurotoxicity in primary cortical neurons, WST-8 / Calcein / LDH; type: cell-based, mouse
Protocol: B) PCNs were incubated with 25 μM Aβ (upper) in the presence of 10 μg of recombinant soluble human gp130 (lower “+”) or BSA (lower “−”). Cell viability was determined by WST-8 assay (upper) or Calcein fluorescence assay (lower) at 72 hr after the onset of treatment with Aβ.
C) PCNs were incubated with 25 μM Aβ (1-43) in the presence of 1 μg of neutralizing anti-mouse gp130 antibody (RX435) or control IgG. Cell viability and cell mortality were determined by Calcein fluorescence (left panel) and LDH assays (right panel), respectively, at 72 hr after the onset of treatment with Aβ (1-43).
[…] At 72 hr after incubation, the cells were harvested for WST-8 assays or/and Calcein fluorescence assays to show cell viability.
B) The soluble IL-6 receptor-α (sIL-6R) or the soluble CNTF-R (100 ng/ml) were added to the cells as in the above A), followed by the stimulation with its ligand, IL-6 or CNTF (100 ng/ml), respectively to show the effects on the neuronal cell death due to Aβ. The right and left graphs show the cell viabilities determined by WST-8 assays and Calcein fluorescence assays, respectively.
C) The neutralizing antibodies (1 μg) for the mouse gp130, mouse LIFR, mouse IL-11R and rat CNTF-R were added as in the above A), and cell viability was determined by Calcein fluorescence assays after 72 hours.
WST-8 assay was performed at 72 hrs after the treatment.
The primary culture of mouse cortical neurons was prepared as described previously (Sudo et al., 2000). Briefly, primary cortical neurons, obtained from embryonic day 14 (E14) ICR mice were seeded in poly-L-lysine-coated 96 well plates (Sumitomo Bakelite) at 2.5 or 5.0×10^4 cells/well in Neuron Medium (Sumitomo Bakelite) (Hashimoto et al., 2003; Niikura et al., 2004). Purity of neurons by this method was >98%. After 3 days, the culture medium was replaced with DMEM with N2 supplement. On the fourth day in vitro, 25 μM of Aβ (1-42) was added in association with indicated concentrations of HN or cytokines in the presence or the absence of soluble cytokine receptors or neutralizing antibodies. At 72 hrs after the onset of treatment, cell viability was assessed by WST-8 assay and/or Calcein fluorescence assay and cell mortality was assessed by the Trypan blue exclusion assay and LDH assay (Hashimoto et al, 2000, 2001 a b, 2003).

inhibition of the binding of HN to PCN (PCN cells): did not show such effect
B1: IL-6: interleukin-6, recombinant cytokine (protein, UniProt P20607 25-211, looked up)
Interleukin-6: FPTSQVRRGDFTEDTTHNRPVYTTSQVGGLITYVLREILEMRKELCNGNSDCMNSDDALSENNLKLPEIQRNDGCFQTGYNQEICLLKICSGLLEFRFYLEFVKNNLQDNKKDKARVIQSNTETLVHIFKQEIKDSYKIVLPTPTSNALLMEKLESQKEWLRTKTIQLILKALEEFLKVTMRSTRQT
mimicry of HN in neuroprotection against neuronal cell death by Aβ ([1]; cytokine 100 ng/ml with its soluble receptor (sIL-6R or soluble CNTF receptor) 100 ng/ml): completely mimicked HN
inhibition of neurotoxicity by Aβ ([1]; cytokine alone, physiological levels (up to 100 ng/ml), 25 μM Aβ): did not inhibit
